According to patent US20230136228A1 (LAMKAP BIO ALPHA, published 2023):
Changes are numbered by the printed parent chain. In names and notes the source's numbering stands.

T1: human CEACAM4 (human, UniProt O75871 36-244)
T1 construct: whole, on cells
T1 sequence (looked up): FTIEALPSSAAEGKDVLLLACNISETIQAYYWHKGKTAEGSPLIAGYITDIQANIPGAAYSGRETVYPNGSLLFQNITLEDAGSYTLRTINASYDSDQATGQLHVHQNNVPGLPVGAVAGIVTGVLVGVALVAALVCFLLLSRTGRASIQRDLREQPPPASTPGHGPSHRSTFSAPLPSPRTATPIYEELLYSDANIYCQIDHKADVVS

T2: human CEACAM3 (human, UniProt P40198 35-252)
T2 construct: whole, on cells
T2 sequence (looked up): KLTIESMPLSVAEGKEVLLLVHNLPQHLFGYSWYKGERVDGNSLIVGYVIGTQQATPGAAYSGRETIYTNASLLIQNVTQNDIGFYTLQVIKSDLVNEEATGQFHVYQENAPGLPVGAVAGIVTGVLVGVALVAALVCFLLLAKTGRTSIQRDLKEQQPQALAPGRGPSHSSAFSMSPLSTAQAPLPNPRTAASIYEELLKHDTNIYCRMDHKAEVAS

T3: human CEACAM1 (human, UniProt P13688 35-526)
T3 construct: whole, on cells
T3 sequence (looked up): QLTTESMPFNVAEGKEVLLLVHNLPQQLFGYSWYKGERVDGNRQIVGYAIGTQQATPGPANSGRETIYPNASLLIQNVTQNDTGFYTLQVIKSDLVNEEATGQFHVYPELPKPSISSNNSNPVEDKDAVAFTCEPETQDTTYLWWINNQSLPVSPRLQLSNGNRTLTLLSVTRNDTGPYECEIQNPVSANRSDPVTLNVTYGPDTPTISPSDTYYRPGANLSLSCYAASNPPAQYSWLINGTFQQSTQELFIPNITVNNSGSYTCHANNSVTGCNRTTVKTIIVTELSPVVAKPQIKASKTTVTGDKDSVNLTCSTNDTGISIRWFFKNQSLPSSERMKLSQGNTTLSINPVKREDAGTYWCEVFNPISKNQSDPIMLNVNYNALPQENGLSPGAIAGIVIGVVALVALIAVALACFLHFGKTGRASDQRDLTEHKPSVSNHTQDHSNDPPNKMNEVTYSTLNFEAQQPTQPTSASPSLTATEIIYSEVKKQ

T4: human CEACAM6 (human, UniProt P40199 35-320)
T4 construct: whole, on cells; also called CD66c
T4 sequence (looked up): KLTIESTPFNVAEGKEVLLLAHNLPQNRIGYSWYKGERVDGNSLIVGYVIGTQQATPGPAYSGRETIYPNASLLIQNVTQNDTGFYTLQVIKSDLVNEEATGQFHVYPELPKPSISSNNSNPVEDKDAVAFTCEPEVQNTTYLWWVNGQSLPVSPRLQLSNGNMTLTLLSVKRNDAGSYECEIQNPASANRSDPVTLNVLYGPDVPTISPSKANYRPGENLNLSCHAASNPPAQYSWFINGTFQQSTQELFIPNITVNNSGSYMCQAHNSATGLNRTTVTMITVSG

T5: human CEACAM5 (carcinoembryonic antigen, CEA), cell surface (human, UniProt P06731 35-685)
T5 construct: whole, on cells; also called CD66e
T5 sequence (looked up): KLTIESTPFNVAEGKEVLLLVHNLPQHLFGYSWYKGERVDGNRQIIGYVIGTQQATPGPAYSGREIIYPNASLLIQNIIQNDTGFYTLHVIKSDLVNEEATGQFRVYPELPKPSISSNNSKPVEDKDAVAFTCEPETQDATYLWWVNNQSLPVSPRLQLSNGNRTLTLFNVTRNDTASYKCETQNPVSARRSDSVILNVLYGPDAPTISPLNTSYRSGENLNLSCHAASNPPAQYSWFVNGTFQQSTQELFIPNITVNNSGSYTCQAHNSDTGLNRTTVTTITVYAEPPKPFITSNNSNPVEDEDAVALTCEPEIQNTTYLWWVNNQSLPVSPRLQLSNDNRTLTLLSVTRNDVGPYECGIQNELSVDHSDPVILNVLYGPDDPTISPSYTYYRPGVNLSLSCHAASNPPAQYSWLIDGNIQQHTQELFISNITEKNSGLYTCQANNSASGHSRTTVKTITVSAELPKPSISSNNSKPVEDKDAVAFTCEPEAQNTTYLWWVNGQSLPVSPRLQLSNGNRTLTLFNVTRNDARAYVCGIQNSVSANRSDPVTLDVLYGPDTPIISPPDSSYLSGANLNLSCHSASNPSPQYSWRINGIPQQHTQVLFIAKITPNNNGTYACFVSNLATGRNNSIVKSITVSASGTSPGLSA

B1: AB17L3-1/N (bispecific antibody, human IgG1, kappa, lambda, L234A L235A)
heavy: EVQLVESGGGLVQPGGSLKLSCAASGFTFNTYAMNWVRQAPGKGLEWVGRIRSKYNNYATYYADSVKDRFTISRDDSKNTAYLQMNSLKTEDTAVYYCVRHGNFGNSYVSWFAYWGQGTLVTVSSASTKGPSVFPLAPSSKSTSGGTAALGCLVKDYFPEPVTVSWNSGALTSGVHTFPAVLQSSGLYSLSSVVTVPSSSLGTQTYICNVNHKPSNTKVDKRVEPKSCDKTHTCPPCPAPEAAGGPSVFLFPPKPKDTLMISRTPEVTCVVVDVSHEDPEVKFNWYVDGVEVHNAKTKPREEQYNSTYRVVSVLTVLHQDWLNGKEYKCKVSNKALAAPIEKTISKAKGQPREPQVYTLPPSREEMTKNQVSLTCLVKGFYPSDIAVEWESNGQPENNYKTTPPVLDSDGSFFLYSKLTVDKSRWQQGNVFSCSVMHEALHNHYTQKSLSLSPG
light 1: EIVLTQSPATLSLSPGERATLSCRASQSVNSNLNWYQQKPGQAPRLLIYHGSNRATGIPARFSGSGSGTDFTLTISSLEPEDFAVYYCQQFDYFKEHNTFGQGTKVEIKRTVAAPSVFIFPPSDEQLKSGTASVVCLLNNFYPREAKVQWKVDNALQSGNSQESVTEQDSKDSTYSLSSTLTLSKADYEKHKVYACEVTHQGLSSPVTKSFNRGEC
light 2: QTVVTQEPSLTVSPGGTVTLTCRSSTGAVTTSNYANWFQQKPGQAPRGLIGGTNKRAPGTPARFSGSLLGGKAALTLSGAQPEDEAEYYCALWYKQRWVFGGGTKLTVLGQPKAAPSVTLFPPSSEELQANKATLVCLISDFYPGAVTVAWKADSSPVKAGVETTTPSKQSNNKYAASSYLSLTPEQWKSHRSYSCQVTHEGSTVEKTVAPTECS
notes: Kappa-lambda body, lead optimization wave 1
B2: AB1L3-1/N (bispecific antibody, human IgG1, kappa, lambda, L234A L235A)
heavy: B1 heavy
light 1: B1 light 1 with Y93L, F94R, K95H
light 2: B1 light 2
notes: Kappa-lambda body: common heavy chain (hIgG1 L234A+L235A+P329A), kappa CEA light chain AB1, lambda CD3 light chain L3-1 (1A4); also called parental KL bispecific antibody
B3: AB71L3-1/N (bispecific antibody, human IgG1, kappa, lambda, L234A L235A)
heavy: B1 heavy
light 1: B1 light 1 with G51S, A55P, T56H
light 2: B1 light 2
notes: Kappa-lambda body, lead optimization wave 2
B4: AB73L3-1/N (bispecific antibody, human IgG1, kappa, lambda, L234A L235A)
heavy: B1 heavy
light 1: B1 light 1 with G51S, S52N, A55P, T56H, K95R, H97Y
light 2: B1 light 2
notes: as for B3
B5: AB72L3-1/N (bispecific antibody, human IgG1, kappa, lambda, L234A L235A)
heavy: B1 heavy
light 1: B1 light 1 with G51S, S52T, A55P, T56R, H97Y
light 2: B1 light 2
notes: as for B3

How the values were obtained:
human CEACAM4 = molecular target: T1, human CEACAM4; test: flow cytometry, transfected PEAK cells
Excerpt: (§1) Vectors encoding the full-length version of human CEACAM 1, 3, 4, 5, 6, 7, 8, 18, 19, 20 and […] are used to express these proteins at the surface of PEAK and/or CHO cells as described in Example 1. Similarly, vectors encoding the full-length version of cyno CEACAM 5 and 6 are also used to express these proteins at the surface of PEAK and/or CHO cells. Non-transfected PEAK and/or CHO cells are used as negative control. Cells are harvested, counted, checked for viability and resuspended at 3×10⁶ cells/ml in FACS buffer (PBS 2% BSA, 0.1% NaN₃). 100 μl of the cell suspension are distributed in V-bottom 96-well plates (3×10⁵ cells/well). The supernatant is removed by centrifugation 3 minutes at 4° C., 1300 rpm and the cells incubated for 15 minutes at 4° C. with increasing concentrations of the antibody according to the invention. The antibodies carrying the anti-CEACAM5 arms to test are diluted in FACS buffer and the concentration range is 30 pM-500 nM. Cells are washed twice with cold FACS buffer and re-incubated for further 15 minutes at 4° C. with a compatible anti-human IgG secondary antibody. Cells are washed twice with cold FACS buffer and resuspended in 300 μl FACS buffer with 1:1500-diluted TOPRO-3 (Invitrogen). Fluorescence is measured using a FACSCalibur™ (BD Biosciences) or a Cytoflex Platform (Beckman Coulter). Dose-response binding curves are fitted using GraphPad Prism8 software. In the same manner, CEACAM1, CEACAM6 and other CEACAMs can be characterized.
(§2) For the bispecific antibodies AB17L3-1/N, AB71L3-1/N, AB72L3-1/N, AB73L3-1/N the MFI measured for binding to CEACAM5 transfected cells was found between 29000 and 41000 (Table 2). In contrast MFI found by using PEAK cells transfected with CEACAM 1,3,4,6,8 were found below 1000 with the only exception of a strong signal for AB72L3-1/N on CEACAM8 transfected cells. When MFI values obtained on transfected cells expressing any given CEACAM are divided by the values obtained on WT PEAK cells, “factors to PEAK WT” can be calculated (Table 3).

human CEACAM3 = molecular target: T2, human CEACAM3; test: flow cytometry, transfected PEAK cells
Excerpt: as §1, §2

human CEACAM1 = molecular target: T3, human CEACAM1; test: flow cytometry, transfected PEAK cells
Excerpt: as §1, §2

human CEACAM6 = molecular target: T4, human CEACAM6; test: flow cytometry, transfected PEAK cells
Excerpt: as §1, §2

[1] = molecular target: T5, human CEACAM5 (carcinoembryonic …); test: flow cytometry, CEA positive cells

| Binder | binding result (human CEACAM4) | binding result (human CEACAM3) | binding result (human CEACAM1) | binding result (human CEACAM6) | binding higher than TCB2014 (at 200 nM) [1] |
| --- | --- | --- | --- | --- | --- |
| B1 | no binding (tested: 10 mcg/ml) | no binding (tested: 10 mcg/ml) | no binding (tested: 10 mcg/ml) | no binding (tested: 10 mcg/ml) |  |
| B2 | no binding (tested: 10 mcg/ml) | no binding (tested: 10 mcg/ml) | no binding (tested: 10 mcg/ml) | no binding (tested: 10 mcg/ml) |  |
| B3 |  |  |  |  | ≥ 40% |
| B4 |  |  |  |  | ≥ 40% |
| B5 | no binding (tested: 10 mcg/ml) | no binding (tested: 10 mcg/ml) | no binding (tested: 10 mcg/ml) | no binding (tested: 10 mcg/ml) | ≥ 40% |
